Measured values reported in US20240270853A1 (Chugai, published 2024).

T1: Recombinant mouse DDR2 ECD-Fc (R&D systems, Cat. No. 7479-DR-050) (mouse, UniProt Q62371 22-399, biotinylated)
T1 construct: Bought protein; not shown: Fc part of the bought fusion protein, not described
T1 sequence: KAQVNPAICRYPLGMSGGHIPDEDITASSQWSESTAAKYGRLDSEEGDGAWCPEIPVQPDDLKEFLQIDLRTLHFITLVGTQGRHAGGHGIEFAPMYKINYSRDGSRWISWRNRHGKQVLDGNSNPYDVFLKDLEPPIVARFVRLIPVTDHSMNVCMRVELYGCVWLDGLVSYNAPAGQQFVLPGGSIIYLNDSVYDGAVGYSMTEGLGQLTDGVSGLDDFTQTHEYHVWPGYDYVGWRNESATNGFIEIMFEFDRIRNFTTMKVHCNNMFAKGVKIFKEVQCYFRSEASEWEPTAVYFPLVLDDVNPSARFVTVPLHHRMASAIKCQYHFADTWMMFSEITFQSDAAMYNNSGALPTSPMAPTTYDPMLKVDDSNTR


Columns and labels:
[1] = target: T1, Recombinant mouse DDR2 ECD-Fc (R&D …); experiment: Octet tandem binning on captured mouse DDR2 ECD-Fc; competitor Ab1 (bound first) DAB0045
Description: (§1) Competitive epitope binning experiment was performed by real-time binding assay using Octet (Pall ForteBio). Recombinant mouse DDR2 ECD-Fc (R&D systems, Cat. No. 7479-DR-050) was biotinylated and captured onto streptavidin biosensor tips (Pall ForteBio) as antigen. The antigen captured tips were dipped into 15 or 40 microgram (micro g)/mL of a first set of antibodies for 300 seconds. Then the tips were incubated with 15 or 40 micro g/mL of a second set of antibodies for 300 seconds. To eliminate an effect of antibody dissociation, the antibody concentration in the second set was the same with that of the first set. Result was analyzed by DATA Analysis HT software (Pall ForteBio, Version 10.0.1.7).
(§2) In Table 3, “Abl” indicates antibody in the first set and “Ab2” indicates antibody in the second set.

[2] = target: T1, Recombinant mouse DDR2 ECD-Fc (R&D …); experiment: Octet tandem binning on captured mouse DDR2 ECD-Fc; competitor Ab1 (bound first) DAB0048
Description: as §1, §2

[3] = target: T1, Recombinant mouse DDR2 ECD-Fc (R&D …); experiment: Octet tandem binning on captured mouse DDR2 ECD-Fc; competitor Ab1 (bound first) DAB0060
Description: as §1, §2

[4] = target: T1, Recombinant mouse DDR2 ECD-Fc (R&D …); experiment: Octet tandem binning on captured mouse DDR2 ECD-Fc; competitor Ab1 (bound first) DAB0065
Description: as §1, §2

[5] = target: T1, Recombinant mouse DDR2 ECD-Fc (R&D …); experiment: Octet tandem binning on captured mouse DDR2 ECD-Fc; competitor Ab1 (bound first) DAB0069
Description: as §1, §2

[6] = target: T1, Recombinant mouse DDR2 ECD-Fc (R&D …); experiment: Octet tandem binning on captured mouse DDR2 ECD-Fc; competitor Ab1 (bound first) DAB0093
Description: as §1, §2

[7] = target: T1, Recombinant mouse DDR2 ECD-Fc (R&D …); experiment: Octet tandem binning on captured mouse DDR2 ECD-Fc; competitor Ab1 (bound first) DAB0094
Description: as §1, §2

| Binder | Octet response of Ab2 [1] | Octet response of Ab2 [2] | Octet response of Ab2 [3] | Octet response of Ab2 [4] | Octet response of Ab2 [5] | Octet response of Ab2 [6] | Octet response of Ab2 [7] |
| --- | --- | --- | --- | --- | --- | --- | --- |
| DAB0065 (antibody, V domains shown, Variable regions from immunized rabbits) VH: QSVEESGGRLVTPGTPLTLTCTVSGFSLSTSAMSWVRQAPGKGLEWIGMITYGGSGSTWYASWANGRFTISKTSTTVTLKMTSPTTEDTASYFCARVYGTIGSNFYSIYSFNLWGQGTLVTVSS VL: AAVLTQTPSPVSAAVGGTVSISCQSSKSVYNSNYLSWYQQKPGQPPKLLIYYTSALASGVSSRFKGSGSGTRFTLTISDVQCDDAATYYCAGGYSSSSDNGFGGGTKVEIK | 0.0398 | 1.65 | 1.51 | 0 | 0.0322 | 1.66 | 1.55 |
| DAB0060 (antibody, V domains shown, Variable regions from immunized rabbits) VH: QSVEESGGRLVTPGTALTLTCTASGFSLSSYDMSWVRQAPGEGLEWIGTIFTEGSTSCASWVKGRFTISRTSTTVDLKITSPTTEDTATYFCVRGTTSNRLWGQGTLVTVSS VL: DVVMTQTPASVEAVVGATVTIRCQASESITNYLSWYQQKPGQPPKVLIYYASTLESGVPSRFKGSGSGTQFTLTISDLECADAATYYCQSNYFSSSYSYGNTFGGGTKVEIK | 0.591 | 0.82 | 0 | 0.766 | 0.615 | 0.857 | -0.054 |
| DAB0045 (antibody, V domains shown, Variable regions from immunized rabbits) VH: QSVEESGGRLVTPGTPLTLTCTVSGFSLSSYSMGWVRQAPGKGLEYIGVINTSDSAYYASWAKGRFTISRTSTTVDLKMTSLTTEDTATYFCARAIGYYGSGWGACYFNLWGQGTLVTVSS VL: AIKMTQTPSSVSAAVGGTVTVNCQASEDIKSYLAWYQQKPGQPPKLLIYSASTLASGVSSRFKGSGSGTQFTLTISDLECADAATYYCQSYYGTSTTGEYNAFGGGTKVEIK | 0 | 1.2 | 1.09 | -0.0102 | -0.001 | 1.13 | 1.07 |
| DAB0048 (antibody, V domains shown, Variable regions from immunized rabbits) VH: QSVEESGGRLITPGTPLTLTCTASGFSLSIYYMIWVRQAPGKGLEWIGYIWSGSTTDYASWAKGRFTISKTSTTVDLKITSPTTEDTATYFCARVYAGYGYGSDLWGQGTLVTVSS VL: AAVLTQTPSPVSAAVGGTVSISCQSSQSVYNNNWLAWYQQKPGQPPKLLIYSASTLASGVPSRFKGSGSGTQFTLTISDVQCDDAATYYCAGGYSTNSDKNAFGGGTKVEIK | 1.32 | 0 | 1.31 | 1.49 | 1.47 | -0.0129 | 1.5 |
| DAB0069 (antibody, V domains shown, Variable regions from immunized rabbits) VH: QSLEESGGRLVTPGTPLTLTCTASGFSLSNYYMQWVRQAPGKGLEWIGIVYPGSSAYYANWAKGRFTISKTSTTVDLKMTSLTTEDTATYFCAGSSNSVYSFNLWGQGTLVTVSS VL: AYDMTQTPSSVSAAVGGTVTIKCQASESIYRSLAWYQQKPGQPPKLLIYSASTLTSGVSSRFKGSGSGTEFTLTISDLECADAGTYYCQQGGSFSNIVNTFGGGTKVEIK | 0.0335 | 1.57 | 1.35 | -0.0058 | 0 | 1.5 | – |
| DAB0094 (antibody, V domains shown, Variable regions from immunized rabbits) VH: QSVEESGGRLVTPGTPLTLTCTVSGFSLSSYSVAWVRQAPGKGLEWIGYISYSGSTYYASWVNGRFTISKTSTTVDLKMTSLTASDTATYFCARDPGYSRDLWGQGTLVTVSS VL: DVVMTQTPSSVSEPVGGTVTIKCQASQSIGSYLSWYQQKPGQPPKLLIYRASTLASGVSSRFKGSGSGTEFTLTINGLECADAAIYYCQSSYVGVSHGSFGGGTKVEIK | 1.22 | 1.42 | 0.0985 | 1.37 | 1.3 | 1.48 | 0 |
